B1: Tyrosine-protein phosphatase non-receptor type 1 (Homo sapiens), P18031 (parent)
chain: MEMEKEFEQIDKSGSWAAIYQDIRHEASDFPCRVAKLPKNKNRNRYRDVSPFDHSRIKLHQEDNDYINASLIKMEEAQRSYILTQGPLPNTCGHFWEMVWEQKSRGVVMLNRVMEKGSLKCAQYWPQKEEKEMIFEDTNLKLTLISEDIKSYYTVRQLELENLTTQETREILHFHYTTWPDFGVPESPASFLNFLFKVRESGSLSPEHGPVVVHCSAGIGRSGTFCLADTCLLLMDKRKDPSSVDIKKVLLEMRKFRMGLIQTADQLRFSYLAVIEGAKFIMGDSSVQDQWKELSHEDLEPPPEHIPPPPRPPKRILEPHNGKCREFFPNHQWVKEETQEDKDCPIKEEKGSPLNAAPYGIESMSQDTEVRSRVVGGSLRGAQAASPAKGEPSLPEKDEDHALSYWKPFLVNMCVATVLTAGAYLCYRFLFNSNT
B2: Tyrosine-protein phosphatase non-receptor type 1 (Homo sapiens), P18031 (parent)
chain: B1 chain
partner: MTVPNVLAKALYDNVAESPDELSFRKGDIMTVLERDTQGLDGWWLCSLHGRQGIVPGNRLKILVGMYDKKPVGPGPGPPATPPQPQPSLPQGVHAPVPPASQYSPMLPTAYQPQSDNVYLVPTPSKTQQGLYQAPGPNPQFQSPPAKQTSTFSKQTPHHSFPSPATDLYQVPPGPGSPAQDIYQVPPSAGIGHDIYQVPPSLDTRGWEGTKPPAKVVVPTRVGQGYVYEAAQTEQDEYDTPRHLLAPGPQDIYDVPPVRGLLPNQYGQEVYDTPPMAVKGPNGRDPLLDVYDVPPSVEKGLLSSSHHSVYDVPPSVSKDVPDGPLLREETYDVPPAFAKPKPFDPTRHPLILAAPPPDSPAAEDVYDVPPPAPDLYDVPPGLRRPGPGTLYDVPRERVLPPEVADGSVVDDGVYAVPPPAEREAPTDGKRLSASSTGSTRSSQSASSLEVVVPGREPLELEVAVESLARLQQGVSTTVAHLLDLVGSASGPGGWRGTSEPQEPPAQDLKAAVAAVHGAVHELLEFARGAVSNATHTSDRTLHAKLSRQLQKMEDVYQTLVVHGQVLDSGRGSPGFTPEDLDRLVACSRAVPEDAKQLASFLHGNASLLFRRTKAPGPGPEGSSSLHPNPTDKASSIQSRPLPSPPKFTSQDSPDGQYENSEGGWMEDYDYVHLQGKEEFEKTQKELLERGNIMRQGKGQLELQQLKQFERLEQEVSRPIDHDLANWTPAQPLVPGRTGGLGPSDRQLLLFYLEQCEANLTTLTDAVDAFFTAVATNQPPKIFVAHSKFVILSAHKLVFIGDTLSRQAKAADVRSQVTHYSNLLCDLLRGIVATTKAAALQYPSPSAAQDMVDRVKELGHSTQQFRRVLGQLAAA

Variants of: B1
Settings: with insr_rat Insr

| effect of a mutation on the interaction | Variant |
| --- | --- |
| disrupting interaction | MEMEKEFEQIDKSGSWAAIYQDIRHEASDFPCRVAKLPKNKNRNRYRDVSPFDHSRIKLHQEDNDYINASLIKMEEAQRSYILTQGPLPNTCGHFWEMVWEQKSRGVVMLNRVMEKGSLKCAQYWPQKEEKEMIFEDTNLKLTLISEDIKSFFTVRQLELENLTTQETREILHFHYTTWPDFGVPESPASFLNFLFKVRESGSLSPEHGPVVVHCSAGIGRSGTFCLADTCLLLMDKRKDPSSVDIKKVLLEMRKFRMGLIQTADQLRFSYLAVIEGAKFIMGDSSVQDQWKELSHEDLEPPPEHIPPPPRPPKRILEPHNGKCREFFPNHQWVKEETQEDKDCPIKEEKGSPLNAAPYGIESMSQDTEVRSRVVGGSLRGAQAASPAKGEPSLPEKDEDHALSYWKPFLVNMCVATVLTAGAYLCYRFLFNSNT [Y152F;Y153F] |

Variants of: B1
Settings: with src_rat Src

| effect of a mutation on the interaction | Variant |
| --- | --- |
| disrupting interaction | P309A;P310A |

Variants of: B1
Settings: with grb2_rat Grb2, P62994

| effect of a mutation on the interaction | Variant |
| --- | --- |
| disrupting interaction | P309A;P310A |

Variants of: B1
Settings: with crk_rat Crk

| effect of a mutation on the interaction | Variant |
| --- | --- |
| disrupting interaction | P309A;P310A |

Variants of: B2
Settings: with bcar1_mouse Bcar1, Q61140

| effect of a mutation on the interaction | Variant |
| --- | --- |
| disrupting interaction | P309A;P310A |

— IntAct's records for PubMed 12023880
